The text below walks through data of patent publication US20220017863A1 (H LEE MOFFITT CANCER CENTER AND RESEARCH INSTITUTE, published 2022).

One experiment addresses T1, Hexokinase 1 (HK1) (mouse, UniProt P17710-3 1-918, limits assumed).
T1 construct: Endogenous protein in lysate
T1 sequence (looked up): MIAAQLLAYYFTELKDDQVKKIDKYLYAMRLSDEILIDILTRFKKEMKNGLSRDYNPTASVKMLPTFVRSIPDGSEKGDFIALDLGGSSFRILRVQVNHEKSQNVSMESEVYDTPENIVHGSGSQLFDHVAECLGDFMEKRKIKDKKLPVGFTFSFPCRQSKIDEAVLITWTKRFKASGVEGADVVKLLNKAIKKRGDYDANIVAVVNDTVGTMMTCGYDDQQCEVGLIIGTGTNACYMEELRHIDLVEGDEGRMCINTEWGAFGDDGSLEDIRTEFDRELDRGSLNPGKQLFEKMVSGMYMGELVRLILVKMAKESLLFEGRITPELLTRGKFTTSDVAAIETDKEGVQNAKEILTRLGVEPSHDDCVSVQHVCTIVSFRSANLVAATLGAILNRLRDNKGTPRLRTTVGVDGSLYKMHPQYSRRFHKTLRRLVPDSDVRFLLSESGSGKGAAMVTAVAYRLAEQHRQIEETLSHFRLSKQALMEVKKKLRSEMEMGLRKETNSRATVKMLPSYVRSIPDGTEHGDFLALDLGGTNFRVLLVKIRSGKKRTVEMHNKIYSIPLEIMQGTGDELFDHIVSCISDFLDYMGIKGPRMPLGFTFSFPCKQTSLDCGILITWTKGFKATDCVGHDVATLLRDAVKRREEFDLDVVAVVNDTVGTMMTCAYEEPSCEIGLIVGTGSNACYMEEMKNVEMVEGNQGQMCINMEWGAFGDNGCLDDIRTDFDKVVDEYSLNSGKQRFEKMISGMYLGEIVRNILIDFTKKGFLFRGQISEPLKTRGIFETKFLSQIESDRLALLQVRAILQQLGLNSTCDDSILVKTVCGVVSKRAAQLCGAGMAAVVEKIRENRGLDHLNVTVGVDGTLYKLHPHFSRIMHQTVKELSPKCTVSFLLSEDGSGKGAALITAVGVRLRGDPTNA
The experiment in a line: co-IP with anti-Sirt2, immunoblot, activated WT mouse CD3+ T cell extracts (FIG. 3B). In general terms: A western blot detects proteins with antibodies after separation by electrophoresis.

The target of experiment [1] is T2, oxoglutarate dehydrogenase (OGDH) (mouse, UniProt Q60597 41-1023, limits assumed).
T2 construct: Endogenous protein in lysate
T2 sequence (looked up): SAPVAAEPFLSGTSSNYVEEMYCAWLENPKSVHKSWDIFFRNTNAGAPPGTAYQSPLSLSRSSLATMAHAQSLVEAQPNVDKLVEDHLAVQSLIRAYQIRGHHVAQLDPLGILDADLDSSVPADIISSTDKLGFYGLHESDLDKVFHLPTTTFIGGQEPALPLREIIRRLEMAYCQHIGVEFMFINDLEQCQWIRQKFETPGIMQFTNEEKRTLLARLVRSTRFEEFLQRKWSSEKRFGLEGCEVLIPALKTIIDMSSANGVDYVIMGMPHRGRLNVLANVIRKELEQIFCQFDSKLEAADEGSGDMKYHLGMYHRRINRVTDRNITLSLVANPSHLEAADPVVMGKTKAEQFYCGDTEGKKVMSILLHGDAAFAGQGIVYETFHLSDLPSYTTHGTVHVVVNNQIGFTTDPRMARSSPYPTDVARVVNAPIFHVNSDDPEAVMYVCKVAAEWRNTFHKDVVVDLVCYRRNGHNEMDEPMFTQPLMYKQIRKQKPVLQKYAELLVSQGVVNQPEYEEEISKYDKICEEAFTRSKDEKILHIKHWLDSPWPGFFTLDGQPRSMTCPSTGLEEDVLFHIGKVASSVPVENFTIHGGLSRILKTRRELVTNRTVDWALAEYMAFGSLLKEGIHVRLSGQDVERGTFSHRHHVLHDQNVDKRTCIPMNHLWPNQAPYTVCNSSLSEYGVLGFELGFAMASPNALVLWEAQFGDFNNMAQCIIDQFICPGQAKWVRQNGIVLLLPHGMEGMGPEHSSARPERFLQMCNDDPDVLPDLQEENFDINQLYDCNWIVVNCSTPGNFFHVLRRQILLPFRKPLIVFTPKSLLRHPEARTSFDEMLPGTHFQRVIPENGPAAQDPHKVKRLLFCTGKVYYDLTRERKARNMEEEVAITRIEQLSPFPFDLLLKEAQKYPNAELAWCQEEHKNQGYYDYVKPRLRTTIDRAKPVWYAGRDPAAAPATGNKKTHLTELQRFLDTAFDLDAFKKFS
The experiment in a line: co-IP/immunoblot and reverse co-IP/immunoblot, activated WT mouse CD3+ T cell extracts.

B1: Sirt2 (enzyme, mouse, UniProt Q8VDQ8 2-389, looked up)
chain: AEPDPSDPLETQAGKVQEAQDSDSDTEGGATGGEAEMDFLRNLFTQTLGLGSQKERLLDELTLEGVTRYMQSERCRKVICLVGAGISTSAGIPDFRSPSTGLYANLEKYHLPYPEAIFEISYFKKHPEPFFALAKELYPGQFKPTICHYFIRLLKEKGLLLRCYTQNIDTLERVAGLEPQDLVEAHGTFYTSHCVNTSCRKEYTMGWMKEKIFSEATPRCEQCQSVVKPDIVFFGENLPSRFFSCMQSDFSKVDLLIIMGTSLQVQPFASLISKAPLATPRLLINKEKTGQTDPFLGMMMGLGGGMDFDSKKAYRDVAWLGDCDQGCLALADLLGWKKELEDLVRREHANIDAQSGSQAPNPSTTISPGKSPPPAKEAARTKEKEEQQ
notes: Endogenous protein immunoprecipitated from T cell lysates with anti-Sirt2 (Sigma #9441); also called Sirtuin 2
B1: the binding result (with Hexokinase 1 (HK1); in experiment [1]) was “binds” each time.
